Results taken from patent US20240209361A1 (Johns Hopkins, published 2024).
Each block holds one binder with its values, some of them ahead of it. No end group written: not given here. (C16)2‑Glu‑C2 = not defined here

What was measured:
[1] = target: T1, integrin α5β1 on patient-derived glioblastoma stem-like cells (GBM-CCC-001, GBM-CCC-002, GBM-CCC-003) (human (patient-derived cells), UniProt P08648 42-1049; P05556 21-798); assay: flow cytometry of calcein-loaded liposomes (150 µM lipid) on GBM-CCC-001, GBM-CCC-002 and GBM-CCC-003 cells, 48 hours at 37° C.
T1 construct: whole, on cells; Endogenous heterodimer on cells; The cells were not engineered, so other surface proteins were also present; also called α5β1 integrin; integrin α5β1 polypeptide
Procedure: (§1) GSC neurospheres (GBM-CCC-001, GBM-CCC-002 and GBM-CCC-003) were collected into 15 mL Falcon tubes, pelleted down, and dissociated into single cells. About 200,000 cells were transferred into Eppendorf tubes in neurosphere culture media and treated with 2 mM calcein loaded PR_b liposomes or non-targeted liposomes at a lipid concentration of 150 μM for 48 hours at 37° C. on a shaker. After the incubation period, cells were pelleted down and washed twice with PBS. Flow cytometric analysis was carried out immediately using BD FACSCanto. Non-treated cells that received only media served as a control. Cell autofluorescence was subtracted from all measurements. For the blocking experiment, the same procedure was followed, except cells were preincubated with 1 mg/mL free PR_b peptide in media for 1 hour at 37° C. prior to addition of the PR_b liposomes and incubation for an additional 1 hour at 37° C.

[2] = target: T1, integrin α5β1 on patient-derived …; assay: flow cytometry blocking experiment on GBM-CCC-001 cells; 1 mg/mL free PR_b peptide for 1 hour, then PR_b liposomes for 1 hour at 37° C.
Procedure: as §1

T1 sequence (P08648 42-1049, chain 1 of 2): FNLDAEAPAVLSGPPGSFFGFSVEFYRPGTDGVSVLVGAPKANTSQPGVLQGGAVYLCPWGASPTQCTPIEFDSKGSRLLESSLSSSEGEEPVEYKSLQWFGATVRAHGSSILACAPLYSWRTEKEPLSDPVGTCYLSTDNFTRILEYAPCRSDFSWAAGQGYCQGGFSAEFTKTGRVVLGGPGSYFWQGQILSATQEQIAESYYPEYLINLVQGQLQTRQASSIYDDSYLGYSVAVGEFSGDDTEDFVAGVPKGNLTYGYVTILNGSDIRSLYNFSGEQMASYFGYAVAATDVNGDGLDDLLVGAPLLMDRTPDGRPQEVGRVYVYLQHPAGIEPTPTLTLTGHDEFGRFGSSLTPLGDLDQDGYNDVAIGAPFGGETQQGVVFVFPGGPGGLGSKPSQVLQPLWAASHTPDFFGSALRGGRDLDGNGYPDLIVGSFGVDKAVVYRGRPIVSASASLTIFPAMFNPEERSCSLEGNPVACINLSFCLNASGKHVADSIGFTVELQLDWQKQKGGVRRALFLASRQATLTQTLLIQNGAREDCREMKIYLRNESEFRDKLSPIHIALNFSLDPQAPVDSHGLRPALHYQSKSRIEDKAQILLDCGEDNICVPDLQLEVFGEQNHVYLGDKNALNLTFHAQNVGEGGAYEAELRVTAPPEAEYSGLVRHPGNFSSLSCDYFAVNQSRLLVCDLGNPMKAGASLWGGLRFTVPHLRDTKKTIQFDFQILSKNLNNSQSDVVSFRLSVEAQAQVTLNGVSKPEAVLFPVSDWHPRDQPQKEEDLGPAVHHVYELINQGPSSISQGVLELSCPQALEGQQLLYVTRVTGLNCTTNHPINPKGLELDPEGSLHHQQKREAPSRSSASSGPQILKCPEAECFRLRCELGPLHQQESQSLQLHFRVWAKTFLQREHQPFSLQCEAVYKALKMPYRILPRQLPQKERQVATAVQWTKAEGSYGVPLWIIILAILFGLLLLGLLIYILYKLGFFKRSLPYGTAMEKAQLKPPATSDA
T1 sequence (P05556 21-798, chain 2 of 2): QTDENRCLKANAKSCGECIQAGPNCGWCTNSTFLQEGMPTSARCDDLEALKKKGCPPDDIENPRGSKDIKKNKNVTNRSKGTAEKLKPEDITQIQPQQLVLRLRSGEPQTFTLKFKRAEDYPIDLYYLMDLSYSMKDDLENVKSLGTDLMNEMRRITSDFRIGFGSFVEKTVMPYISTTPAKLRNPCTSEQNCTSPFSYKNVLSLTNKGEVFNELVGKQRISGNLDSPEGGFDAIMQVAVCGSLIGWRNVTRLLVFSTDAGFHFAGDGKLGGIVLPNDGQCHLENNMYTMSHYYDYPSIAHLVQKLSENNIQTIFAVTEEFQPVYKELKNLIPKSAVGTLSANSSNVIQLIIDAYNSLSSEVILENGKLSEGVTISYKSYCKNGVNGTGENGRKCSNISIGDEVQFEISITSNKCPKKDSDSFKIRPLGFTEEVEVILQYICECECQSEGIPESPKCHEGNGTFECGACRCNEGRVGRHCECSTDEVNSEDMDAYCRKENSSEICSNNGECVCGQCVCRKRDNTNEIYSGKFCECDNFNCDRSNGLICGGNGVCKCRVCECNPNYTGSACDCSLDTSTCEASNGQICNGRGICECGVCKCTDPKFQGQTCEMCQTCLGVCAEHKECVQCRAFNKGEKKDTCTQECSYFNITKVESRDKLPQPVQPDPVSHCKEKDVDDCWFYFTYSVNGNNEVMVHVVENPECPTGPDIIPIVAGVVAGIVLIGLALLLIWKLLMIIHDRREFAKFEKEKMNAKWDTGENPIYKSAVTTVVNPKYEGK

- binding result [1]: binds
B1: PR_b peptide-amphiphile (C16)2-Glu-C2-KSSPHSRNSGSGSGSGSGRGDSP, shown on the surface of PR_b-functionalized liposomes (peptide)
peptide: {(C16)2‑Glu‑C2}-KSSPHSRNSGSGSGSGSGRGDSP
modifications: reading uncertain; also: printed as (C16)2-Glu-C2-KSSPHSRNSGSGSGSGSGRGDSP
notes: Synthetic fibronectin-mimetic peptide

- binding result [2]: binds
B2: free PR_b peptide (peptide)
peptide: KSSPHSRNSGSGSGSGSGRGDSP
